# Data reported in publication PMC8230800, “Interaction of Temporin-L Analogues with the E. coli FtsZ Protein” (Antibiotics, 2021).
# Ends that are not written are not given here.
# B1: Escherichia coli FtsZ protein (enzyme, E. coli, UniProt P0A9A6 1-383, looked up)
# chain: MFEPMELTNDAVIKVIGVGGGGGNAVEHMVRERIEGVEFFAVNTDAQALRKTAVGQTIQIGSGITKGLGAGANPEVGRNAADEDRDALRAALEGADMVFIAAGMGGGTGTGAAPVVAEVAKDLGILTVAVVTKPFNFEGKKRMAFAEQGITELSKHVDSLITIPNDKLLKVLGRGISLLDAFGAANDVLKGAVQGIAELITRPGLMNVDFADVRTVMSEMGYAMMGSGVASGEDRAEEAAEMAISSPLLEDIDLSGARGVLVNITAGFDLRLDEFETVGNTIRAFASDNATVVIGTSLDPDMNDELRVTVVATGIGMDKRPEITLVTNKQVQQPVMDRYQQHGMAPLTQEQKPVAKVVNDNAPQTAKEPDYLDIPAFLRKQAD
# notes: also called recombinant FtsZ; source: E. coli BL21, overexpressed and purified as described previously [7]
# B2: Native Temporin L (peptide)
# peptide: FVQWFSKFLGRIL
# notes: Temporin-L, amphibian antimicrobial peptide, 13 residues; also called TL; native TL
# B3: TRIL (Temporin-L analogue) (peptide)
# peptide: FVKWFKKFLTRIL
# notes: Temporin-L with Q3K, S6K and G10T; Designed from the docking model of FtsZ with TL
# Experiments:
# [1] = target: T1, FtsZ (recombinant E. coli FtsZ) (Escherichia coli, UniProt P0A9A6); test: GTPase activity assay (BIOMOL Green Pi release); format: biochemical; settings: 35 µM peptide, GTP substrate, 25 mM PIPES/NaOH pH 6.8
# T1 construct: made in house; host or cells: E. coli BL21
# Experimental: The putative effect of the two TL analogues on FtsZ GTPase activity was evaluated by enzymatic assays.
# The reaction was performed for 10 min and the Pi release was determined by measuring the absorbance at 620 nm following 25 min incubation. (b) Lineweaver−Burk plots from which the KM constants were calculated. (c) Calculated KM constants and Vmax for the enzymatic assays. The experiment was performed in duplicate and presented as mean ± standard error.
# (§1) Recombinant E. coli FtsZ was overexpressed and purified from E. coli BL21 strain as described previously. The purity of the protein was analyzed by SDS-PAGE 12.5% and its primary structure was validated by MALDI mapping strategy on a 5800 MALDI-TOF/TOF instrument (ABI Sciex, Foster City, CA, USA). The concentration of purified FtsZ was determined by Bradford’s method, using BSA as a standard. The protein was stored at −80 °C.
# The amount of Pi released during the assembly of FtsZ was measured using BIOMOL Green phosphate reagent (Biomol, Milan, Italy) as described earlier. […] The reaction was performed for 10 min and stopped by addition of 100 µL BIOMOL Green reagent. The Pi release was determined after incubation at 25 °C for 25 min by measuring the absorbance at 620 nm. The background was subtracted from all the readings. The experiment was performed in duplicate. […]
# [2] = target: T1, FtsZ (recombinant E. coli FtsZ); test: Fluorescence binding experiment (spectrofluorimetric titration); settings: FtsZ 12 μM, peptide 1 to 180 μM, 20 °C, excitation 280 nm, emission 347 nm, one site-specific binding fit, in duplicate; read-out: Kd of FtsZ-peptide complex
# Experimental: Right panel (d–f): Diagram plots extrapolated from fluorescence data. The experiments were performed in duplicate and the standard deviation is reported as error bars.
# as §1
# Fluorescence experiments were performed using a Fluoromax-4 spectrofluorometer from Horiba Scientific, using 1 cm optical path-length quartz cell under controlled temperature conditions (Peltier control system at 20 °C). The sample was analyzed, monitoring the fluorescence intensity of aromatic residues with an excitation wavelength of 280 nm. The wavelength range explored was 295–500 nm. […] All experiments were repeated in duplicate. The change in the fluorescence intensity of the reaction set was fitted into “one site-specific binding” equation of GraphPad Prism 5 (GraphPad Software, San Diego, CA, USA).
# [3] = target: the molecule itself; test: co-sedimentation; polymerization assay: FtsZ 12 µM in 25 mM PIPES/NaOH pH 6.8, 1 mM GTP, 25 °C 1 h, without or with 10, 30, 50, 70 µM peptide; centrifugation 14,000 rpm 60 min, pellet on SDS-PAGE, densitometry
# [4] = target: B1; test: other fluorescence titration; intrinsic fluorescence of FtsZ (12 µM), excitation 280 nm, emission 347 nm, 20 °C, peptide from 1 to 180 µM, fitted to 'one site-specific binding', duplicate; settings: both partners purified
molecule,measurement,setting,value
Magainin-2,effect on FtsZ GTPase activity (in words),[1],no effect on the GTP activity
FVKWFKKFLTRILF [TRILF],Kd,[2],4.3 ± 0.2 µM
B1,binding result,[3],binds
B2,Kd,[4],11 ± 1 µM
B3,Kd,[4],21.4 ± 1.1 µM
